Measurements: US8106168B2, “Metalloproteinase binding proteins” (Dyax Corp., priority 2005, dated 2012)
Residue numbers refer to the chain shown, from its start.

B1: M0043-F01: Fab that binds human MMP-14; DNA LV SEQ ID NO: 130, HV SEQ ID NO: 131 (antibody, V domains shown)
VL: QSALTQPASVSGSPGQSITISCTGTSSDIGAYRYVSWYQQRPGKAPKLMIFDVTKRPSGVSNRFSGFKSGNTASLTISGLQAEDEADYYCSSFTSGSTFVFGTGTKVTVL
VH: EVQLLESGGGLVQPGGSLRLSCAASGFTFSKYSMYWVRQAPGKGLEWVSSISSSGGYTAYADSVKGRFTISRDNSKNTLYLQMNSLRAEDTAVYYCAIPWGSGSSWGQGTLVTVSS
modifications: Synthetically generated oligonucleotide
B2: M0043-A09: Fab that binds human MMP-14; DNA LV SEQ ID NO: 126, HV SEQ ID NO: 127 (antibody, V domains shown)
VL: QSVLTQPPSVSKDLRQTATLTCTGNSNNVGYQGAAWLQQHQGHPPKVLSYRNNNRPSGISERFSASRSGNTASLTITGLQPEDEADYYCSAWDSSLTAWVFGGGTKLTVL
VH: EVQLLESGGGLVQPGGSLRLSCAASGFTFSFYDMTWVRQAPGKGLEWVSSIWSSGGVTDYADSVKGRFTISRDNSKNTLYLQMNSLRAEDTAVYYCTRASSGYYDAFDIWGQGTMVTVSS
modifications: Synthetically generated oligonucleotide
B3: M0042-B07: Fab that binds human MMP-14; DNA LV SEQ ID NO: 122, HV SEQ ID NO: 123 (antibody, V domains shown)
VL: QDIQMTQSPLSLPVTPGEPASISCRSSQSLLHSNGYNYLDWYVQKPGQSPQLLIYLGSGRASGVPDRFSGSGSGTDFTLKINRVEAEDVGVYYCMQALQTPWTFGQGTKVEIK
VH: EVQLLESGGGLVQPGGSLRLSCAASGFTFSPYSMFWVRQAPGKGLEWVSVIYPSGGGTIYADSVKGRFTISRDNSKNTLYLQMNSLRAEDTAVYYCARSRESCDADTCYQYFQEWGQGTLVTVSS
modifications: Synthetically generated oligonucleotide
B4: M0044-D08: Fab that binds human MMP-14; DNA LV SEQ ID NO: 138, HV SEQ ID NO: 139 (antibody, V domains shown)
VL: QYELTQPLSVSVALGQTASISCWGHNIRIKNVHWYQQKPGQAPVVVMYIPERFSGSTSGNTATLTISGAQAGDEADYYCQVWDSSTVVFGGGTKLTVL
VH: EVQLLESGGGLVQPGGSLRLSCAASGFTFSKYPMSWVRQAPGKGLEWVSSIWPSGGHTFYADSVKGRFTISRDNSKNTLYLQMNSLRAEDTAVYYCAKNPGLRYAFDNWGRGTMVTVSS
modifications: Synthetically generated oligonucleotide
B5: M0041-E11: Fab that binds human MMP-14; DNA LV SEQ ID NO: 116, HV SEQ ID NO: 117 (protein)
chain 1: QDIQMTQSPSSLSAFVGDRVIITCRASQDISVYVNWYQQSSGKAPKLLIYGASSLQSGVPSRFSGSGSGTDFTLTISSLQPEDFASYFCQQSYNLPFTFGGGTNVQIK
chain 2: EVQLLESGGGLVQPGGSLRLSCAASGFTFSQYNMQWVRQAPGKGLEWVSGIVPSGGWTPYADSVKGRFTISRDNSKNTLYLQMNSLRAEDTAVYYCARGVRYGLDYWGQGTLVTVSS
modifications: Synthetically generated oligonucleotide
B6: M0032-B07: Fab that binds human MMP-14; DNA LV SEQ ID NO: 20, HV SEQ ID NO: 21 (antibody, V domains shown)
VH: EVQLLESGGGLVQPGGSLRLSCAASGFTFSPYLMHWVRQAPGKGLEWVSSIYPSGGITQYADSVKGRFTISRDNSKNTLYLQMNSLRAEDTAVYYCARFFPSHRDYTAFDTWGRGTLVTVSS
VL: QSVLTQEPSLTVSPGGTVTLTCASNTGAVTSGSYANWFQQKPGLTPRALIYSGTNKYSWTPARFSGSLFGGKAALTLSGVLPEDEAEYYCLVYYGGVWVFGGGTKLTVL
modifications: Synthetically generated oligonucleotide
B7: M0043-G01: Fab that binds human MMP-14; DNA LV SEQ ID NO: 132, HV SEQ ID NO: 133 (antibody, V domains shown)
VL: QDIQMTQSPSAMSASVGDRVTITCRASQGISSWLAWYQQKPGKAPKLLIYAASSLQSGVPSRFSGSGSGTDFTLTISSLQPEDFATYYCQQANSFPLTFGGGTKVEIK
VH: EVQLLESGGGLVQPGGSLRLSCAASGFTFSFYSMHWVRQAPGKGLEWVSGISSSGGVTKYADSVKGRFTISRDNSKNTLYLQMNSLRAEDTAVYYCARARSTRGFDYWGQGTLVTVSS
modifications: Synthetically generated oligonucleotide
B8: M0044-B03: Fab that binds human MMP-14; DNA LV SEQ ID NO: 136, HV SEQ ID NO: 137 (antibody, V domains shown)
VL: B7 VL with A11S, M12V, G29N, S31Y, K40R, Q56H, N93K, L97V
VH: EVQLLESGGGLVQPGGSLRLSCAASGFTFSQYHMMWVRQAPGKGLEWVSSIGSSGYTKYADSVKGRFTISRDNSKNTLYLQMNSLRAEDTAVYYCAGAVAGTGAFDYWGQGTLVTVSS
modifications: Synthetically generated oligonucleotide
B9: M0041-H09: Fab that binds human MMP-14; DNA LV SEQ ID NO: 118, HV SEQ ID NO: 119 (antibody, V domains shown)
VL: QDIQMTQSPGTLSLSPGERATLSCRASQSLSGDYLAWYQQKIGQAPRLLIFGASRRPTGIPDRFSGSGSGTDFALTISRLEPEDFAVYYCQQYGSLITFGQGTRLEIK
VH: EVQLLESGGGLVQPGGSLRLSCAASGFTFSVYEMTWVRQAPGKGLEWVSGIGSSGGMTFYADSVKGRFTISRDNSKNTLYLQMNSLRAEDTAVYYCARIRYSGSYGWHYMDVWGKGTTVTVSS
modifications: Synthetically generated oligonucleotide
B10: M0043-C03: Fab that binds human MMP-14; DNA LV SEQ ID NO: 128, HV SEQ ID NO: 129 (antibody, V domains shown)
VL: QDIQMTQSPASLYLSPGERATLSCRASQSVSSNLAWYQQKPGQAPRLLIYGASTRATGIPARFSGSGSGTEFTLTISSLQSADFAVYYCQQYDNWPPLTFGGGTKVEIK
VH: EVQLLESGGGLVQPGGSLRLSCAASGFTFSYYAMDWVRQAPGKGLEWVSSIGSSGGDTVYADSVKGRFTISRDNSKNTLYLQMNSLRAEDTATYYCARDPRQPGVFDYWGQGTLVTVSS
modifications: Synthetically generated oligonucleotide
B11: M0041-H11: Fab that binds human MMP-14; DNA LV SEQ ID NO: 120, HV SEQ ID NO: 121 (antibody, V domains shown)
VL: QSELTQDPAVSVALGQTVRITCQGDSLRSYYASWYQQKPGQAPVLVIYGKNNRPSGIPDRFSGSSSGNTASLTITGAQAEDEADYYCNSRDSSGNHVVFGGGTKLTVL
VH: EVQLLESGGGLVQPGGSLRLSCAASGFTFSMYPMNWVRQAPGKGLEWVSSISSSGGWTKYADSVKGRFTISRDNSKNTLYLQMNSLRAEDTAVYYCARVFFGYDSSGYPYYYYGMDVWGQGTTVTVSS
modifications: Synthetically generated oligonucleotide

Target: MMP-14 (Homo sapiens, UniProt P50281)
Assay: Selection and phage ELISA screening of anti-MMP-14 Fabs
Type: binding
Conditions: Fab from FAB310 phage display library
How it was run: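 The FAB310 phage library was panned on biotinylated MMP-14, alone or complexed with bead-bound TIMP-2, at 500 nM and then 100 nM over three rounds. Phage was eluted with 2.5 μM TIMP-2, then 100 mM TEA. For ELISA, 95 clones per round were screened against 1 μg/ml biotinylated MMP-14 captured on streptavidin in TRIS/5 mM CaCl2, pH 7.5.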

Bind to human MMP-14, bind to human MMP-14:
B1
B2
B3
B4
B5
B6
B7
B8
B9
B10
B11
